Data taken from publication PMC6941993.

Experiments:
Assay in all cases: SPR; Biacore T200; […]; single-cycle kinetics; […]
[1] = molecular target: GP1_(JUNV)–Fc (Junín virus (JUNV)) (UniProt O10428)
[2] = molecular target: GP1_(MACV)–Fc (Machupo virus (MACV)) (UniProt Q8AZ52)
[3] = molecular target: GP1_(WWAV)–Fc (Whitewater Arroyo virus (WWAV)) (UniProt Q911P0)

stand-alone apical domain (sAD) designed from White-throated woodrat TfR1 (domain or fragment)
Kd [1]: 1000 nM | Kd [2]: 4 nM | Kd [3]: 1000 nM
